Where a chain is given by its changes, count along the chain named.
T1: IL-12 (Human IL12 (His Tag)), Sino Biological Cat. No. CT-050-H08H-20 (human, UniProt P29460 23-328; P29459 23-219)
T1 construct: Bought His-tagged p35/p40 heterodimer
T1 sequence (looked up) 1: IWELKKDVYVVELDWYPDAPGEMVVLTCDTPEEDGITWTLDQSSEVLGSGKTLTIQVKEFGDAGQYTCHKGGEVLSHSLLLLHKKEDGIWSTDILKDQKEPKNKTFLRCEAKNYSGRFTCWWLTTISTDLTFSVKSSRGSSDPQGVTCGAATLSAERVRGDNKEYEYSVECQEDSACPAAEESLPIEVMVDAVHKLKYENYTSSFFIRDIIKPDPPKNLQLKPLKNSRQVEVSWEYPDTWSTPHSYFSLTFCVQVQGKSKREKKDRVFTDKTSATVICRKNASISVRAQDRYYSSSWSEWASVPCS
T1 sequence (looked up) 2: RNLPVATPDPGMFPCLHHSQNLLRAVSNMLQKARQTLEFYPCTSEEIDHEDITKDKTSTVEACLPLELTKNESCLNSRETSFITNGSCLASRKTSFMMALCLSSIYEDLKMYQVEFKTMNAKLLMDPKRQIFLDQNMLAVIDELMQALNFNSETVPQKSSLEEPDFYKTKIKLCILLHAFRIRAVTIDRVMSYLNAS

T2: human IL-23 (IL-23-His-Biotin, Akesobio, 20161209) (human, UniProt Q9NPF7 20-189; P29460 23-328)
T2 construct: His-tagged and biotinylated; also called human IL23-His-Biotin
T2 sequence (looked up) 1: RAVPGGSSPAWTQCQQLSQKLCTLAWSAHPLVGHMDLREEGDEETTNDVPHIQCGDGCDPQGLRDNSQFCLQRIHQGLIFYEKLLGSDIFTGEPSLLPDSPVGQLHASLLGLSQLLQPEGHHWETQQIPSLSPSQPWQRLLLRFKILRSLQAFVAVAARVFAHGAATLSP
T2 sequence (looked up) 2: T1 sequence (looked up) 1

B1: H5L9 (antibody, human IgG1, kappa, V domains shown)
VH: EVQLVQSGAEVKKPGESLKISCQSSGYSFTTYWIGWVRQMPGQGLEWIGIMSPVDSDIRYNPMFRGQVTMSVDKSSSTAYLQWSSLKASDTAMYYCARRRPGQGYFDFWGQGTMVTVSS
VL: DIQMTQSPSSLSASVGDRVTITCKASQNVGSWLAWYQQKPGKAPKSLIYSASSRQSGVPSRFSGSGSGTDFTLTISSLQPEDFATYYCQQYDIYPFTFGQGTKLEIKR
notes: Humanized anti-human IL-12/IL-23 p40 antibody; IgG1 (P01857) / kappa (P01834) constant regions
B2: H5L10 (antibody, human IgG1, kappa, V domains shown)
VH: B1 VH
VL: EIVLTQSPATLSASPGERATISCRASQSVGSWLAWYQQKPGQAPRSLIYAASNLQSGIPARFSGSGSGTDFTLTISSLEPEDFAVYYCQQYNIYPYTFGQGTRLEIKR
notes: IgG1/kappa
B3: H5L11 (antibody, human IgG1, kappa, V domains shown)
VH: B1 VH
VL: B2 VL with G30S, A50S
notes: IgG1/kappa
B4: H5L12 (antibody, human IgG1, kappa, V domains shown)
VH: B1 VH
VL: B2 VL with G30S, L54R
notes: IgG1/kappa
B5: H5L14 (antibody, human IgG1, kappa, V domains shown)
VH: B1 VH
VL: B2 VL with G30S, Y96F
notes: IgG1/kappa
B6: ustekinumab (trade name Stelara) (antibody, V domains shown)
VH: EVQLVQSGAEVKKPGESLKISCKGSGYSFTTYWLGWVRQMPGKGLDWIGIMSPVDSDIRYSPSFQGQVTMSVDKSITTAYLQWNSLKASDTAMYYCARRRPGQGYFDFWGQGTLVTVSS
VL: DIQMTQSPSSLSASVGDRVTITCRASQGISSWLAWYQQKPEKAPKSLIYAASSLQSGVPSRFSGSGSGTDFTLTISSLQPEDFATYYCQQYNIYPYTFGQGTKLEIK

Target: T1, IL-12 (Human IL12 (His Tag)), Sino …
Test: FACS competition, IL-12-His 20 nM on 293T-IL-12RB1&IL-23R cells, antibody 0.12 µg/mL
Method: (§1) 200 μL of 1% PBSA was added into each sample, and the mixture was centrifuged at 700×g for 5 min to discard the supernatant. According to experiment design, correspondingly diluted antibody (highest final concentration of 30 μg/mL, 3-fold dilution, 8 concentrations in total) and human IL-12 (Sino Biological, Cat. No.: CT-050-H08H-20) (final concentration of 20 nM) were mixed at a ratio of 1:1, and a blank control was set. The mixture of antibody and human IL12 was incubated on ice for 30 min and then added to the cell precipitate at 100 μL/sample. The resulting mixture was well mixed and incubated on ice for 60 min. 200 μL of 1% PBSA was added, and the mixture was centrifuged at 700×g for 5 min to discard the supernatant, and then washed twice. Alexa Fluor® 488 anti-His tag antibody (Biolegend, Cat. No.: 652509) was diluted at a ratio of 1:400 and added to each tube at 100 μL. The mixture was well mixed and incubated on ice for 40 min in the absence of light. 200 μL of 1% PBSA was added, and the mixture was centrifuged at 700×g for 5 min to discard the supernatant, and then washed twice. 1% PBSA was added at 200 μL/tube, and the cells were resuspended and transferred to a flow cytometry tube for testing.

First: B1
Second: B2
The MFI of the first is higher: 160 for the first, 151 for the second.

Compared with B3, B4 is lower in MFI: 145 for the first, 133 for the second.

Going from B5 to B6, the MFI falls from 146 to 137.

Target: T2, human IL-23 (IL-23-His-Biotin, …)
Test: FACS competition, IL-23-His-Biotin 2 µg/mL on 293T-IL-12RB1&IL-23R cells, antibody 10 µg/mL
Method: (§2) 2.1. […] 200 μL of 1% PBSA was added into each sample, and the mixture was centrifuged at 700×g for 5 min to discard the supernatant. According to experiment design, correspondingly diluted antibody (highest final concentration of 30 μg/mL, 3-fold dilution, 8 concentrations in total) and human IL-23 (IL-23-His-Biotin, Akesobio, 20161209) (final concentration of 2 μg/mL) were mixed at a ratio of 1:1, and a blank control was set. The mixture of antibody and human IL23 was incubated on ice for 30 min and then added to the cell precipitate at 100 μL/sample. The resulting mixture was well mixed and incubated on ice for 60 min. 200 μL of 1% PBSA was added, and the mixture was centrifuged at 700×g for 5 min to discard the supernatant, and then washed twice. FITC Streptavidin (Biolegend, Cat. No.: 405202) was diluted at a ratio of 1:500 and added to each tube at 100 μL. The mixture was well mixed and incubated on ice for 40 min in the absence of light. 200 μL of 1% PBSA was added, and the mixture was centrifuged at 700×g for 5 min to discard the supernatant, and then washed twice. 1% PBSA was added at 200 μL/tube, and the cells were resuspended and transferred to a flow cytometry tube for testing.

Compared with B1, B2 is lower in MFI: 136 for the first, 12.7 for the second.

Compared with B3, B4 is lower in MFI: 14.5 for the first, 12.7 for the second.

Compared with B5, B6 is lower in MFI: 16.7 for the first, 11.5 for the second.

Target: T2, human IL-23 (IL-23-His-Biotin, …)
Test: FACS competition, IL-23-His-Biotin 2 µg/mL on 293T-IL-12RB1&IL-23R cells, antibody 0.01 µg/mL
Method: as §2

Going from B1 to B2, the MFI rises from 222 to 223.

First: B3
Second: B4
The MFI of the first is lower: 219 for the first, 221 for the second.

Compared with B5, B6 is higher in MFI: 218 for the first, 219 for the second.

Target: T2, human IL-23 (IL-23-His-Biotin, …)
Test: FACS competition, IL-23-His-Biotin 2 µg/mL on 293T-IL-12RB1&IL-23R cells, antibody 0.37 µg/mL
Method: as §2

Going from B1 to B2, the MFI falls from 206 to 169.

First: B3
Second: B4
The MFI of the first is higher: 179 for the first, 177 for the second.

Going from B5 to B6, the MFI rises from 179 to 186.

Target: T2, human IL-23 (IL-23-His-Biotin, …)
Test: FACS competition, IL-23-His-Biotin 2 µg/mL on 293T-IL-12RB1&IL-23R cells, antibody 1.11 µg/mL
Method: as §2

Compared with B1, B2 is lower in MFI: 184 for the first, 81.6 for the second.

Compared with B3, B4 is lower in MFI: 97.6 for the first, 88.5 for the second.

First: B5
Second: B6
The MFI of the first is lower: 95.6 for the first, 121 for the second.

Target: T2, human IL-23 (IL-23-His-Biotin, …)
Test: FACS competition, IL-23-His-Biotin 2 µg/mL on 293T-IL-12RB1&IL-23R cells, antibody 3.33 µg/mL
Method: as §2

First: B1
Second: B2
The MFI of the first is higher: 153 for the first, 15.7 for the second.

First: B3
Second: B4
The MFI of the first is higher: 20.2 for the first, 15.8 for the second.

First: B5
Second: B6
The MFI of the first is higher: 23.6 for the first, 13.8 for the second.

Target: T1, IL-12 (Human IL12 (His Tag)), Sino …
Test: FACS competition, IL-12-His 20 nM on 293T-IL-12RB1&IL-23R cells, antibody 3.33 µg/mL
Method: as §1

First: B1
Second: B2
The MFI of the first is higher: 146 for the first, 40.2 for the second.

Compared with B3, B4 is lower in MFI: 42.2 for the first, 31.8 for the second.

First: B5
Second: B6
The MFI of the first is higher: 51.9 for the first, 29.7 for the second.

Target: T1, IL-12 (Human IL12 (His Tag)), Sino …
Test: FACS competition, IL-12-His 20 nM on 293T-IL-12RB1&IL-23R cells, antibody 0.01 µg/mL
Method: as §1

Compared with B1, B2 is lower in MFI: 169 for the first, 163 for the second.

First: B3
Second: B4
The MFI of the first is higher: 166 for the first, 161 for the second.

Compared with B5, B6 is higher in MFI: 149 for the first, 160 for the second.
